This experiment addresses T1, PKM2 (ab89364, Abcam) (human, UniProt P14618 1-531).
T1 construct: human M2 isoform of pyruvate kinase (PKM2), bought recombinant protein; see the vendor's sheet for ab89364; also called PKM2 protein; source: bought: Abcam (ab89364)
Kind of experiment: BLI; biotinylated TRIB2 loaded onto SSA biosensors, blocked with biocytin (5 μg/ml) for 60 s; PKM2 diluted in PBS as analyte; Octet data analysis software. As to conditions: both partners purified. Background: In BLI a coated tip is dipped into the sample, and binding shifts an interference pattern.

These results are taken from article PMC9256704, “Oncogenic TRIB2 interacts with and regulates PKM2 to promote aerobic glycolysis and lung cancer cell procession” (Cell Death Discovery, 2022).

T1 sequence (P14618 whole entry, canonical isoform): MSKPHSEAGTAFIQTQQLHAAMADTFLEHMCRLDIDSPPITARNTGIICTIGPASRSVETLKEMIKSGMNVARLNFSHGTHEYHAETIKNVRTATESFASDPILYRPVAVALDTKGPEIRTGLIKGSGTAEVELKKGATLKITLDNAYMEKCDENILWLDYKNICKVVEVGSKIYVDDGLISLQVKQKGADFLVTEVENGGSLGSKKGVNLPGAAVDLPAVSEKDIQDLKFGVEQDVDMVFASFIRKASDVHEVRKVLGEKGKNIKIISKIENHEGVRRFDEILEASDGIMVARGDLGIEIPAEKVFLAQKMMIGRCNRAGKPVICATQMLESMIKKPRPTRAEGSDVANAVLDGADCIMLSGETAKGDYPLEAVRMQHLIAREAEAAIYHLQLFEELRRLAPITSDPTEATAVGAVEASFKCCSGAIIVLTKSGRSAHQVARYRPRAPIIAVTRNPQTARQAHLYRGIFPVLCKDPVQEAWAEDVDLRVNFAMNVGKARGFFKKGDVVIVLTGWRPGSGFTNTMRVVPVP

B1: recombinant TRIB2 protein (TP301210, OriGene), biotinylated (natural protein, human, UniProt Q92519 1-343, looked up)
chain: MNIHRSTPITIARYGRSRNKTQDFEELSSIRSAEPSQSFSPNLGSPSPPETPNLSHCVSCIGKYLLLEPLEGDHVFRAVHLHSGEELVCKVFDISCYQESLAPCFCLSAHSNINQITEIILGETKAYVFFERSYGDMHSFVRTCKKLREEEAARLFYQIASAVAHCHDGGLVLRDLKLRKFIFKDEERTRVKLESLEDAYILRGDDDSLSDKHGCPAYVSPEILNTSGSYSGKAADVWSLGVMLYTMLVGRYPFHDIEPSSLFSKIRRGQFNIPETLSPKAKCLIRSILRREPSERLTSQEILDHPWFSTDFSVSNSAYGAKEVSDQLVPDVNMEENLDPFFN
modifications: biotinylated
notes: human Tribbles homologue 2 (TRIB2), bought recombinant protein; also called human TRIB2; source: bought: OriGene (TP301210)
As to B1, the Kd – broadly, the concentration at which binding is half-saturated – was 7.44 nM.
